Here are results for five substances from US20210046191A1.

Read-outs that look alike come from different tables or passages of the source.

The target of test [1] is C5a receptor C5aR (CD88) on human blood neutrophils (human) (UniProt P21730). The test is described as follows: cell-based or functional assay.
Test [2] has the same target. The test is described as follows: cell-based or functional assay. The source holds these as a separate data set.
Test [3] has as its target recombinant human C5a (rhC5a) (human) (UniProt P01031).

Sequence of C5a receptor C5aR (CD88) on human blood neutrophils (human) (P21730 whole entry): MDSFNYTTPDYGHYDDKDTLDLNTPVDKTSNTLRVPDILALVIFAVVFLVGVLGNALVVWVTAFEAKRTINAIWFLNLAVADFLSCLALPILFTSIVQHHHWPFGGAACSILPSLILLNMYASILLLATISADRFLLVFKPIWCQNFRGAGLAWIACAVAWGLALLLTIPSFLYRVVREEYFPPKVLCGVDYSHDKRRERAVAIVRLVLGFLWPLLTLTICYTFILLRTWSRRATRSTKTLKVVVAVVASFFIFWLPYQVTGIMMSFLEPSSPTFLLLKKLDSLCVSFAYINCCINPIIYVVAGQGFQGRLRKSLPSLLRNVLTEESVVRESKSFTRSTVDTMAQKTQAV
Sequence of recombinant human C5a (rhC5a) (human) (P01031 678-751 limits assumed): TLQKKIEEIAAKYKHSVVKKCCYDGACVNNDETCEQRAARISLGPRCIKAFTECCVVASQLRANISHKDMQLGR

For the substance PMX-53 (peptide), in test [1], the Blocking activity (%) on CD11b upregulation; Pat. 088 | PMX 53 (20 µM) worked out at 104%, the Blocking activity (%) on CD11b upregulation; Pat. 092 | PMX 53 (20 µM) came out at 109%, the Blocking activity (%) on CD11b upregulation; huPP | rhC5a | PMX 53 (20 µM) was 108% and the CD11b (mean MFI) on neutrophils; Pat. 088 | PMX 53 (20 µM) is 2030 MFI. In test [1], this substance yielded a CD11b (mean MFI) on neutrophils; Pat. 092 | PMX 53 (20 µM) of 1910 MFI and a CD11b (mean MFI) on neutrophils; huPP | rhC5a | PMX 53 (20 µM) of 1850 MFI. In test [2], this substance came in with a Blocking activity (%) on CD11b upregulation; Pat. 088 | PMX 53 (50 nM) of 55.5%, a Blocking activity (%) on CD11b upregulation; Pat. 092 | PMX 53 (50 nM) of 56.7%, a Blocking activity (%) on CD11b upregulation; huPP | rhC5a | PMX 53 (50 nM) of 50.3% and a CD11b (mean MFI) on neutrophils; Pat. 088 | PMX 53 (50 nM) of 4730 MFI. In test [2], this substance displayed a CD11b (mean MFI) on neutrophils; Pat. 092 | PMX 53 (50 nM) of 4660 MFI and a CD11b (mean MFI) on neutrophils; huPP | rhC5a | PMX 53 (50 nM) of 4240 MFI.

In test [2], anti-C5aR (CD88) antibody Clone 7H110 showed a Blocking activity (%) on CD11b upregulation; Pat. 088 | Clone 7H110 (50 nM) of 75.7%, a Blocking activity (%) on CD11b upregulation; Pat. 092 | Clone 7H110 (50 nM) of 78.7%, a Blocking activity (%) on CD11b upregulation; huPP | rhC5a | Clone 7H110 (50 nM) of 70.7% and a CD11b (mean MFI) on neutrophils; Pat. 088 | Clone 7H110 (50 nM) of 3560 MFI. In test [2], this substance gave a CD11b (mean MFI) on neutrophils; Pat. 092 | Clone 7H110 (50 nM) of 3390 MFI and a CD11b (mean MFI) on neutrophils; huPP | rhC5a | Clone 7H110 (50 nM) of 3380 MFI.

In test [2], anti-C5aR (CD88) antibody Clone S5/1 came in with a Blocking activity (%) on CD11b upregulation; Pat. 088 | Clone S5/1 (50 nM) of 72.7%, a Blocking activity (%) on CD11b upregulation; Pat. 092 | Clone S5/1 (50 nM) of 75.9%, a Blocking activity (%) on CD11b upregulation; huPP | rhC5a | Clone S5/1 (50 nM) of 73% and a CD11b (mean MFI) on neutrophils; Pat. 088 | Clone S5/1 (50 nM) of 3740 MFI. Besides, in test [2], the CD11b (mean MFI) on neutrophils; Pat. 092 | Clone S5/1 (50 nM) came to 3560 MFI and the CD11b (mean MFI) on neutrophils; huPP | rhC5a | Clone S5/1 (50 nM) amounted to 3290 MFI.

For irrelevant human IgG4 antibody, in test [3], the blocking activity (%) of rhC5a-induced CD11b upregulation on neutrophils, human whole blood, flow cytometry; bar 'IgG4 control : rhC5a = 1:1' against rhC5a (16.7 nM) alone is 7%.

For the substance “recombinant human C5a (rhC5a) (from UniProt P01031 678-751) (ligand)”, the CD11b (mean MFI) on neutrophils; huPP | rhC5a (20 nM) came to 8330 MFI in test [1] and 6330 MFI in test [2].
